This data set concerns the molecule itself. Briefly: cryo-EM structure; 1-MDa fraction of the Superose 6 Increase step, 1 mg/ml, frozen anaerobically at once after purification; Titan Krios G3i, K3; focused maps of Hdr(ABC)2 and of the Elp arm in two conformational states.

B1: heterodisulfide reductase HdrABC (complex)
chain 1: MAEEKKETMEEPKIGVYVCHCGVNIGGVVDVEAVRDYAAKLPNVVIAKDYKYYCSDPGQLEIQKDIKELGINRVVVAACSPRLHEPTFRRCVEEAGLNQFLFEFANIREHDSWVHMDNPEGATEKAKDLVRMAVAKARLLEPLEASKVSVDDKALVIGGGVAGIQAALDLADMGFKTYMVEKRPSISGRMGQLDKTFPTLDCSMCILAPKMVDVGKHDNIELITYAEVKEVDGYIGNFKVKIEKKPRYIDEELCTGCGSCVEVCPIEMPNYFDEGIGMTKAVYIPFPQAVPLCATIDKDYCIECMLCDEVCERGAVKHDQEPEEIEIEVGTIIVATGYDAYDPTEKLEYGYGRHTNVITGLELERMINASGPTDGKVLKPSDGEKPKRVAFIHCVGSRDEQIGKPYCSRVCCMYIMKNAQLIKDKMPDTEVTLYYMDIRAFGKGFEEFYKRSQEKYGIKFIRGRPAEVIENPDLTLTVRSEDTLLGKVTEYDYDMVVLGVGLVPPEGAETLRQTIGLSKSADGFLMEAHPKLRPVDTLTDGVYLAGVAQGPKDIPDAVAQASGAAARAAIPMVKGEVEIEPIIAVTDSDVCGGCEVCIELCPFGAISIEEGHANVNVALCKGCGTCVAACPSGAMDQQHFKTEQIMAQIEAALNEPASK
chain 2: not shown
chain 3: MTLLQREENIIRKGNIDKEFSEKIKAAGGDSLEYCFQCGTCTGSCPSGRRTPYRVRQIIRKANVGLKDEIISDPTLWMCTTCYSCQERCPRKVKIVDVVKLARNEAAKAGFMAPAHKAVGSFVIKTGHGVPINDATMELRKAVGLGELPPTTHQFPEALEEVQKIIKATGFDQLIGYNWETGELE
notes: also called Hdr(ABC)2; (HdrABC)2
For B1, the stoichiometry N (usually the number of molecules, sites or subunits per partner or assembly) came out at 2.

(Values after article PMC12350162 (Nature, 2025).)
